Assay results reported in patent publication US20060084618, “Adiponectin promoter and use thereof” (published 2006).

Tests used:
PPARγ/RXRα heterodimer = PPARγ/RXRα heterodimer (Homo sapiens, UniProt P37231;P19793 P37231:1-505,P19793:1-462); assay: EMSA; poly(dI-dC), 25 C 20 min then 4 C 15 min; band when both PPARγ and RXRα present; competed by 10x and 50x unlabeled wild type; conditions: tags: TNT T7 Quick Coupled (Promega); label: 32P
Description: For the binding reaction, human PPARγ and RXRα protein were synthesized in vitro by using TNT T7 Quick Coupled Transcription/Translation Systems (Promega corporation) according to a supplyer's protocol. […] The binding reaction was performed in 20 μl of a solution including 1 μg of poly (dI-dC), 1 μl of the in vitro synthesized nuclear receptor solution, and 200,000 cpm of the labeled probe. After mixing, it was incubated for 20 minutes at 25° C. and was left for 15 minutes at 4° C. The labeled probe binding to nuclear receptors was separated from the free probe by electrophoresis using 4% of polyacrylamide gel. The electrophoresis was executed using 0.5× TBE buffer (45 mM Tris, 45 mM boric acid, and 1 m M EDTA) for 90 minutes under a voltage of 200V. After the electrophoresis, the gel was dried and analyzed by BAS2500 system (Fuji Photo Film Co., Ltd.). To confirm that the labeled probe binds to nuclear receptors specifically, the competitive reactions were executed.

LRH-1 = LRH-1 (Homo sapiens, UniProt O00482 O00482:1-541); assay: EMSA; conditions as Example 4; competed by 10x and 50x unlabeled wild type; conditions: protein: synthetic; tags: synthesized in vitro from human LRH-1 expression plasmid; label: 32P
LRH-1, sequence (O00482 whole entry, one chain of several): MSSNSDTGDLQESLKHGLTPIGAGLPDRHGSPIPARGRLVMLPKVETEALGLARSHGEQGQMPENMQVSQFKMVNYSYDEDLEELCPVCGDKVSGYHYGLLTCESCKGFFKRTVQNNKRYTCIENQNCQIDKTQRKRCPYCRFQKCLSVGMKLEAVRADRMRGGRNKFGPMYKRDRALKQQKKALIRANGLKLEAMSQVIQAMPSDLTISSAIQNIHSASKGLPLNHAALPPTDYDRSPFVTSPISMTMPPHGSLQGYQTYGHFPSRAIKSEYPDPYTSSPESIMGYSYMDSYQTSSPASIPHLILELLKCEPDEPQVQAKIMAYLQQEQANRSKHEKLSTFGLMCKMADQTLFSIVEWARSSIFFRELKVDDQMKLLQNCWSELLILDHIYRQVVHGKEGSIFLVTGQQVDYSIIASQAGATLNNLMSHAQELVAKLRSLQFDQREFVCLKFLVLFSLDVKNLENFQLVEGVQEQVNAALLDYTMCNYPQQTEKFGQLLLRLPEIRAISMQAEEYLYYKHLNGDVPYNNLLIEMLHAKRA
Description: To confirm the direct binding of LRH-1 to the regulatory sequence LRH-RE found in human adiponectin promoter region, gel shift assay was executed. […] LRH-1 protein used was synthesized in vitro using human LRH-1 expression plasmid as template. […] In the competitive reaction, identical oligoDNAs to the labeled probe were used as wild-type competitors. […] 10 times or 50 times higher concentration of each unlabeled oligoDNAs was added into the reaction.

PPARγ/RXRα heterodimer, sequence (P37231 whole entry, chain 1 of 2): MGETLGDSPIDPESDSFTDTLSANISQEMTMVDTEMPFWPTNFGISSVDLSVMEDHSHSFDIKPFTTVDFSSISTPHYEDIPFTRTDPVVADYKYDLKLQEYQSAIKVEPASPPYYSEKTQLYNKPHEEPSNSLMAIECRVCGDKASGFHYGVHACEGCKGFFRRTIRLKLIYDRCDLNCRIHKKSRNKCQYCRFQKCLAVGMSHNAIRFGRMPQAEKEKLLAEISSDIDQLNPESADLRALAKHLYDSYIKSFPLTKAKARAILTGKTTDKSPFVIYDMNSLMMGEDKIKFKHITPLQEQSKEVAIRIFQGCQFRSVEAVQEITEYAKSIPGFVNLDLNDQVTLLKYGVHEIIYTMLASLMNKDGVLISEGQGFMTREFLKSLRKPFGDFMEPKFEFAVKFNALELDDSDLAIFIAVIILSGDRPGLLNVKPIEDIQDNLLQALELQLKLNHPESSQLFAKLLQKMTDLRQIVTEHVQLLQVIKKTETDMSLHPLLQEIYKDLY
PPARγ/RXRα heterodimer, sequence (P19793 whole entry, chain 2 of 2): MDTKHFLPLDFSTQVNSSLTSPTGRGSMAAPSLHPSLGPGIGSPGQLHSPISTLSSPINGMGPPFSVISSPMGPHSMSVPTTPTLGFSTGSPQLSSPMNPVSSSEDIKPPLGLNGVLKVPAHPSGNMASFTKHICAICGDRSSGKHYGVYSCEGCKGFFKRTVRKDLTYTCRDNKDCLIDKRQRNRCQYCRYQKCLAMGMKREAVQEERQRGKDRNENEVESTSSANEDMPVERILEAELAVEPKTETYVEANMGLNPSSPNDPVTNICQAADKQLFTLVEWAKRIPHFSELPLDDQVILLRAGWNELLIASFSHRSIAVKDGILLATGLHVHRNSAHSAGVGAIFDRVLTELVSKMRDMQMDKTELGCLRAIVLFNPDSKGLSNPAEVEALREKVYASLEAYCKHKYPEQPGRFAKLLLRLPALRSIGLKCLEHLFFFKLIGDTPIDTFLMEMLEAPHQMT

Binder	binding result (PPARγ/RXRα heterodimer)	binding result (LRH-1)
adiponectin PPRE probe (-291 to -267) (dsDNA) DNA 1: TGGTTTTGACTTTTGCCCCATCTTC DNA 2: GAAGATGGGGCAAAAGTCAAAACCA	binds	–
adiponectin LRH-RE probe (-245 to -221) (dsDNA) DNA 1: AATAAGGGTCAAGGCCTGGAAACAC DNA 2: GTGTTTCCAGGCCTTGACCCTTATT	–	binds
